Measurements: patent publication US20090068158A1, “THYMIDYLATE KINASE MUTANTS AND USES THEREOF” (priority 2005, published 2009)
“Also recorded” adds a separate entry of the source.

What was measured:
Jurkat cells [1] = experiment: AZT sensitivity of LV-tmpk-transduced Jurkat cells (MTT cell viability assay); assay type: cell-based, human; conditions: for cell viability upon addition of AZT (in words), Example 15: clonal Jurkat cells, AZT up to 1 mM, 4 days
Protocol: Transduced Jurkat cells and the single-cell clones were seeded in 96 well plates (2×10^5/well) in 200 μl of medium containing increasing concentrations of AZT (0, 1, 10 and 100 μM). The medium was changed daily. […] Data are expressed as mean±standard error of mean (SEM).
To examine the AZT-mediated celikilling activity of tmpk cDNA, each of transduced cells were incubated with the increasing concentration of AZT. After incubating both non-transduced and LV-transduced cells with AZT for […], cell viability was determined using MTT assay (FIG. 4A).
Transduced Jurkat cells and single-cell clones were seeded in 96 well plates (2×10^5 cells/well) in 200 μl of the RPMI medium described above with increasing concentrations of AZT (0, 0.1, 1, 10, 100 μM, and 1 mM). The medium was changed daily. After 4 days of culture, cell viability was determined by using Cell Titer 96 Aqueous One Solution Cell Proliferation Assay kit (Promega, Madison, Wis.).

Jurkat cells [2] = experiment: Induction of apoptosis by 100 μM AZT in LV-tmpk-transduced Jurkat cells (annexin V staining); assay type: cell-based, human; conditions: 4 days; for early apoptotic cell index in response to AZT treatment: transduced Jurkat cells, n=3
Protocol: Cells were seeded in 24 well plates (10^6/well) in 1 ml of medium with or without 100 μM of AZT. The medium was changed daily. After 4 days of culture, induction of apoptosis in the cells were analyzed by annexin-V staining according to the manufacturer's protocol (Annexin V-APC: BD Pharmingen). **, P<0.01, n=3. Data are expressed as mean±SEM.
(§1) For evaluation of the induction of apoptosis, treated Jurkat clonal cells were stained with Annexin V. Briefly, cells were seeded in 24 well plates (10^6 cells/well) in 1 ml of medium with or without 100 μM AZT. After 4 days of culture, Annexin V staining was performed according to the manufacturer's protocol (Annexin V-APC: BD Pharmingen). For testing whether AZT-mediated cell killing depends on the cellular proliferation, indirubin-3′-monoxime (final concentration 5 μM, Sigma-Aldrich, St. Louis, Mo.) was added simultaneously with 100 μM AZT to the culture.
(§2) To simplify comparative studies a relative apoptotic index was calculated. Here data obtained was normalized by dividing results from AZT treated cells in each condition by the results obtained without added AZT. Values were reported as fold increases. Statistical significance between groups was calculated by ANOVA.

Jurkat cells [3] = experiment: HPLC determination of intracellular AZT metabolites in cells treated with 100 μM AZT; assay type: cell-based, human
Protocol: The cells were cultured in the presence of 100 μM AZT for 36 hrs. 10^7 cells were homogenized by sonication in 100 μl of 5% (w/v) trichloroacetic acid. The supernatant is collected after homogenate had been centrifuged at 10,000×g for 15 min at 4° C. The trichloroacetic acid was removed by extraction with an equal volume of 20% tri-n-octylamine in pentane. The neutralized aqueous fraction is directly injected into HPLC. Separation of AZT and its metabolites was performed on a C18 column (Waters) with a mobile phase composed of 0.2 M phosphate buffer containing 4 mM tetrabutylammonium hydrogen sulfate (pH 7.5) and acetonitrile in the ratio of 97:3 (v/v). The mobile phase was pumped at a flow rate of 1.5 ml/min. The UV absorbance was monitored at 270 nm. Five million cell equivalents were injected and analyzed in triplicate.
Cells were cultured in the presence of 100 μM AZT for 36 h. 10^7 cells were homogenized by sonication in 100 μl of 5% (w/v) trichloroacetic acid (TCA). The supernatant was collected after centrifugation at 10,000×g for 15 min at 4° C. TCA was removed by extraction with an equal volume of 20% tri-n-octylamine in pentane. The neutralized aqueous fraction was directly injected into the HPLC machine (Waters, Milford. MA). Separation of AZT and its metabolites were performed on a C18 column (Waters), with a mobile phase composed of 0.2 M phosphate buffer containing 4 mM tetrabutylammonium hydrogen sulfate (pH 7.5) and acetonitrile in the ratio of 97:3 (v/v)^48 at a flow rate of 1.5 ml/min. The UV absorbance was monitored at 270 nm. Standards for each AZT-metabolite (AZT-MP, AZT-DP, and AZT-TP) were purchased from Moravek Biochemicals (Brea, Calif.). Five million cell equivalents were injected and analyzed in triplicate.

Jurkat cells [4] = experiment: Loss of mitochondrial membrane potential after AZT (JC-1 staining, flow cytometry); assay type: cell-based, human; conditions: transduced Jurkat cells, 100 μM AZT
Protocol: Cells (10^6 cells) treated with (shown (+) in figure) or without (−) 100 μM AZT were stained with JC-1 for […] at 37° C., and then were analyzed by flow cytometry. ***, P<0.001, n=3.
(§3) Transduced cells […] were treated with 100 μM AZT for 4 days or left untreated. To detect changes in the mitochondrial inner membrane potential, the cells were incubated with 5,5′,6,6′-tetrachloro-1,1′,3,3′-tetraethylbenzimidazolylcarbocyanine iodide (JC-1, Molecular Probes Inc.) for 30 min at 37° C., and were then analyzed using a FACS Calibur. The activation of caspase-3 in cells was examined using the FACS Calibur following incubation with an FITC-labeled caspase 3 inhibitor peptide (FITC-DEVD-FMK, Calbiochem, San Diego, Calif.) for 1 hr at 37° C.

Jurkat cells [5] = experiment: AZT-induced apoptosis/cell killing under cell cycle arrest with indirubin-3'-oxime; assay type: cell-based, human
Protocol: Cells were seeded in 24-well plates (10^6/well) in 1 ml of medium containing 0 (shown in AZT (−) in figure) or 100 μM of AZT (shown in AZT (+)) with or without 5 μM indirubin-3′-oxime (Figure (B) and (A), respectively). The medium was refreshed daily. After 2 days of culture, induction of apoptosis by AZT was analyzed by annexin V staining according to the manufacturer's protocol described. **, P<0.01, n=3. Data are expressed as mean±SEM.
as §1, §2

K562 cells = experiment: Growth of transduced K562 cells xenografted into AZT-treated NOD/SCID mice; assay type: in vivo; conditions: for tumor size / final tumor volume: transduced K562 cells sc in NOD/SCID mice, four and a half weeks past injection
Protocol: Female or male 5 to 8-week-old non-obese diabetic/severe combined immunodeficient (NOD/SCID) mice were purchased from Jackson Laboratory. Lentivirally-transduced or non-transduced K562 cells (20×10^6 cells) were resuspended in 0.5 mL Dulbecco's phosphate-buffered saline (D-PBS) per inoculum and injected subcutaneously (SC) into the right flanks of recipient mice. AZT treatment, which was administered intraperitoneally (IP) at the dose of 2.5 mg/kg/day, was started one day after injection and conducted for 14 days. In vivo tumor cell growth was monitored by measuring tumor size for up to 32 days post-inoculations. All experimental data were reproduced at least twice.
Transduced K562 cells were affinity-purified by MACS using magnetic beads conjugated with an anti-human CD19 monoclonal antibody (Miltenyi Biotec Inc., Auburn, Calif.). The purity of the cells following isolation was evaluated by FACS Calibur. Non-obese diabetic/severe combined immunodeficiency (NOD/SCID) mice (5 to 8-weeks old, purchased from Jackson Laboratories, Bar Harbor, Me.) were maintained at the Animal Resource Centre at the Princess Margaret Hospital (Toronto, ON, Canada). The entire animal experimental procedure followed a protocol approved by the Animal Care Committee of the UHN. Experimental groups consisted of male and female NOD/SCID mice injected with 2×10^7 K562 cells (resuspended in 0.5 mL D-PBS; Oxoid, Basingstoke, England) that were either lentivirally-transduced (n=10 for each LV) or non-transduced (NT) (n=10). Injections were performed subcutaneously (sc) into the dorsal right flanks of recipient mice as previously described^49. One day after injection of the cells, half of the mice in each group (n=5) began receiving daily AZT injections, administered intraperitoneally (ip) at a dose of 2.5 mg/kg/day for 14 days. Tumor growth was measured by caliper and calculated as 0.5×length×width^2 (in mm^3) for up to […].

Jurkat cells [6] = experiment: Activation of caspase 3 by AZT (FITC-DEVD-FMK, flow cytometry); assay type: cell-based, human; conditions: clonal Jurkat cells, 100 μM AZT, 4 days
Protocol: as §3

[7] = Enzymatic activity of tmpk mutants for AZT-MP; assay type: biochemical, human
primary human T cells = experiment: Induction of apoptosis by AZT in transduced primary human T cells (annexin V); assay type: cell-based; conditions: 100 μM AZT, 4 days
Protocol: Human T lymphocytes were isolated from PBMNCs contained within heparinized blood obtained from healthy human donors by Ficoll-Hypaque (GE Healthcare) separations. Mouse T cells were prepared from B cell-depleted splenocyte preparations using goat anti-mouse IgG beads (BioMag, Qiagen, Mississauga, ON). T cells were activated by using anti-CD3 and anti-CD28 coated beads (PMID: 12855580) in a ratio of 1:3 (cell:beads) with 20 IU/mL of recombinant human interleukin 2 (R&D Systems, Minneapolis, Minn.) for 3 days. Cells were infected with concentrated virus stocks for 3 h on ice using an indicated MOI in the presence of 8 μg/ml protamine sulfate. Infected cells were then kept in culture for 5 days prior to evaluating gene transfer efficiency. Gene transfer efficiencies were measured by flow cytometry using a monoclonal anti-human CD19-antibody conjugated with phycoerythrin (PE) as described above. Induction of apoptosis following AZT-exposure was evaluated by Annexin V-staining as above.

| Molecule | cell viability upon addition of AZT (in words), Example 15 (Jurkat cells [1]) | AZT sensitivity / cell killing of transduced cells (in words) (Jurkat cells [1]; transduced Jurkat cells, AZT up to 100 μM) | early apoptotic cell index in response to AZT treatment (Jurkat cells [2]) [%] | intracellular ratio of AZT-TP to AZT-MP (Jurkat cells [3]; LV-transduced Jurkat cells, 100 μM AZT for 36 h) | conversion of AZT-MP / accumulation of AZT-TP (in words) (Jurkat cells [3]; clonal Jurkat cells, 100 μM AZT 36 h) | loss of mitochondrial (inner) membrane potential after AZT treatment (in words) (Jurkat cells [4]) | apoptotic index with AZT in presence of indirubin-3'-monoxime (in words) (Jurkat cells [5]; clonal Jurkat cells, 100 μM AZT + 5 μM indirubin-3'-monoxime, 4 days) | cells killed by AZT after cell cycle arrest (Jurkat cells [5]; transduced Jurkat cells, indirubin-3'-oxime 5 μM, 100 μM AZT, 2 days) [%] | tumor growth under AZT (in words), Example 8/10 (K562 cells; transduced K562 cells in NOD/SCID mice, AZT 2.5 mg/kg for two weeks) | tumor size / final tumor volume (K562 cells; AZT 2.5 mg/kg for two weeks) | activation of caspase 3 by AZT (in words) (Jurkat cells [6]) | enzymatic activity / catalytic conversion compared to wild-type tmpk (in words) [7] | fold increase of apoptotic index by AZT-treatment (Jurkat cells [2]; clonal Jurkat cells, normalized to no AZT) [fold] | fold increase of apoptotic index by AZT in presence of indirubin-3'-monoxime (Jurkat cells [5]; clonal Jurkat cells, 100 μM AZT + 5 μM indirubin-3'-monoxime, 4 days, normalized to no AZT) [fold] | tumor growth under daily AZT (in words), Example 15 (K562 cells; 2×10^7 transduced K562 cells sc in NOD/SCID mice, AZT 2.5 mg/kg/day ip for two weeks, day 14) | fold increase in percentage of activated caspase 3-positive cells by AZT (Jurkat cells [6]; normalized to no AZT) [fold] | fold increase of apoptotic index by AZT (primary human T cells) [fold] |
| --- | --- | --- | --- | --- | --- | --- | --- | --- | --- | --- | --- | --- | --- | --- | --- | --- | --- |
| wild-type tmpk: wild-type human thymidylate kinase overexpressed by LV transduction, comparator (protein, UniProt P23919 2-212, looked up) Thymidylate kinase: AARRGALIVLEGVDRAGKSTQSRKLVEALCAAGHRAELLRFPERSTEIGKLLSSYLQKKSDVEDHSVHLLFSANRWEQVPLIKEKLSQGVTLVVDRYAFSGVAFTGAKENFSLDWCKQPDVGLPKPDLVLFLQLQLADAAKRGAFGHERYENGAFQERALRCFHQLMKDTTLNWKMVDASKSIEAVHEDIRVLSEDAIRTATEKPLGELWK | limited cell killing | non-sensitive to AZT up to 100 μM; also recorded: unaffected by AZT up to 100 μM | 6.2±0.3 | 0.10 | no significant increases in the accumulation of AZT-TP | did not demonstrate a similar loss of mitochondrial inner membrane potential | No significant increases | 2 | no significant reduction in tumor volume | 2000 mm^2 | slight, but significant, increase |  |  |  |  |  |  |
| R200A: modified human tmpk, R to A mutation at amino acid position 200 (SEQ ID NOS: 15 and 16) (protein, UniProt P23919 2-212, looked up, variant R200A) Thymidylate kinase: AARRGALIVLEGVDRAGKSTQSRKLVEALCAAGHRAELLRFPERSTEIGKLLSSYLQKKSDVEDHSVHLLFSANRWEQVPLIKEKLSQGVTLVVDRYAFSGVAFTGAKENFSLDWCKQPDVGLPKPDLVLFLQLQLADAAKRGAFGHERYENGAFQERALRCFHQLMKDTTLNWKMVDASKSIEAVHEDIRVLSEDAIATATEKPLGELWK |  |  |  |  |  |  |  |  |  |  |  | superior enzymatic activity |  |  |  |  |  |
| F105Y: modified human thymidylate kinase (tmpk), F to Y mutation at amino acid position 105 (SEQ ID NO: 11, 21) (protein, UniProt P23919 2-212, looked up, variant F105Y) Thymidylate kinase: AARRGALIVLEGVDRAGKSTQSRKLVEALCAAGHRAELLRFPERSTEIGKLLSSYLQKKSDVEDHSVHLLFSANRWEQVPLIKEKLSQGVTLVVDRYAFSGVAYTGAKENFSLDWCKQPDVGLPKPDLVLFLQLQLADAAKRGAFGHERYENGAFQERALRCFHQLMKDTTLNWKMVDASKSIEAVHEDIRVLSEDAIRTATEKPLGELWK | minimally viable |  | 40.7±1.7 |  |  | significant increase |  |  |  | 100-300 mm^2 |  | substantially increased catalytic conversion of AZT; also recorded: superior enzymatic activity | 9.5±0.8 | 2.3±0.4 | strongly inhibited; also recorded: suppression of tumor growth | 4.6±0.1 | 4.0±0.3 |
